Data on twelve molecules can be found in patent US20210206855A1 (ADAGENE, published 2021).

For assay [1], the target named is T1, cynomolgus monkey CTLA4 antigen fused with human FC fragment (cynomolgus monkey, UniProt G7PL88 36-161, fused to a human Fc fragment that is not in the letters).
T1 sequence: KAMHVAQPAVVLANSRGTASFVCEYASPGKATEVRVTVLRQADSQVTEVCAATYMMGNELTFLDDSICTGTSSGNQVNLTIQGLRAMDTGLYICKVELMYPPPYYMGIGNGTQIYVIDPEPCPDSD
The assay is described as follows: ELISA, captured Fab. A general note: In an ELISA, binding on a coated surface is turned into a signal by an enzyme label.

Assay [2] addresses T2, recombinant human CTLA4-Fc (Sino Biological, 11159-H03H) (human, UniProt P16410 37-162).
T2 construct: bought; whole entry named; Biotinylated in the yeast display assays; also called human CTLA4 fused with human FC fragment; biotinylated CTLA4-Fc; not shown: human Fc fragment
T2 sequence (looked up): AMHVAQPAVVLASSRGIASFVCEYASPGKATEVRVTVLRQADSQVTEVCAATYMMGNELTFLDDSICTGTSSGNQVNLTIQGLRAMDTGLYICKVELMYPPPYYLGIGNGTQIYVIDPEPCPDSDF
The assay is described as follows: ELISA, coated human CTLA4-Fc, batch 2. The protocol: (§1) Plates were blocked with PBS supplemented with 3% non-fat milk at 37° C. for 1 hour. After washing, 100 μL of 3-fold serial dilutions of antibodies were added to each well. After incubation at 37° C. for 1 hour, plates were washed four times, and […] conjugated anti-human IgG (Fab specific) (1:6000 dilution) was added to each well. Plates were incubated at 37° C. for 1 hour, washed four times, and then 50 μL TMB substrate solution was added to each well, and the plate was incubated at room temperature. […] The EC₅₀ was evaluated by fitting the ELISA data using the asymmetrical sigmoidal (five-parameter logistic equation) model of GraphPad Prism 6 software.

In assay [3] the target is T2, recombinant human CTLA4-Fc (Sino …). The assay is described as follows: ELISA, coated human CTLA4-Fc, batch 1. The procedure:
as §1

The target is the same in assay [4]. The experiment in a line: ELISA, coated human CTLA4-Fc (as Example 8). The protocol: as §1
The target is the same in assay [5]. The assay is described as follows: ELISA, coated human CTLA4-Fc (as Example 8). The procedure:
as §1
This is another data set of the same source.

The target in assay [6] is T3, recombinant human CTLA4 fused with human Fc and His tag (human, UniProt P16410 37-162, limits assumed, biotinylated where used in solution).
T3 construct: also called biotinylated human CTLA4 fused with human FC and His tag; recombinant human CTLA4 proteins; not shown: human Fc and His tag
T3 sequence (looked up): T2 sequence (looked up)
The assay is described as follows: competition ELISA: plate-bound human CTLA4-Fc-His, biotinylated human CD80 as the blocked ligand, HRP-neutravidin. The protocol:
Plates were blocked with PBS supplemented with 2% (w/v) skim milk at 37° C. for 1 hour. […] Plates were washed four times, and 100 μL HRP-neutravidin (1:1000) was added to each well and incubated at 37° C. for 1 hour. Plates were washed as previously described, and 50 μL TMB substrate solution was added and incubated at room temperature for 5 minutes before the reaction was stopped by 50 μL sulfate acid (2M).

Assay [7] has as its target T4, canine CTLA4 fused with His tag (canine, UniProt Q9XSI1 36-162, limits assumed).
T4 construct: soluble protein; also called dog CTLA4; not shown: His tag
T4 sequence (looked up): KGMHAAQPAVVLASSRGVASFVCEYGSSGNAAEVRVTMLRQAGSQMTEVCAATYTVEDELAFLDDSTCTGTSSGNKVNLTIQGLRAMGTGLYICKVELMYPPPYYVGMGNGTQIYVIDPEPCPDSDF
The experiment in a line: ELISA, coated canine CTLA4-His. The protocol:
(§2) The ability of certain IgG antibodies to bind to soluble human (FIG. 1A, Table 5A) or canine (FIG. 1B, Table 5B) CTLA4 was next tested. 1 μg/mL human CTLA4 fused with human FC fragment, or canine CTLA4 fused with His tag, were prepared and used to coat an ELISA plate at 2-8° C. overnight. After blocking, 100 μL serial diluted IgG antibodies were added and incubated at 37° C. for 1 hour. Plates were washed for four times and then incubated with HRP-anti human IgG (Fab specific) (1:6000 dilution) at 37° C. for 1 hour. Plates were washed again four times and incubated with TMB substrate for 15 minutes at room temperature. […] The data was analyzed by Graphpad Prism 6 with nonlinear fitting.

Assay [8] concerns the target T2, recombinant human CTLA4-Fc (Sino …). The assay is described as follows: ELISA, coated human CTLA4-Fc. The procedure: as §2

Changes are numbered by the printed parent chain.

B1: B15722 (Fab, V domains shown)
VH: EVQLVESGGGLVQPGGSLRLSCAASGFTFSDYGIHWVRQAPGKGLEWIGEIYHSGSTYYSPSLKSRVTISRDNSKNTLYLQLNSLRAEDTAVYYCARDVAPGSSGYYDGFDFWGQGTLVTVSS
VL: DIQLTQSPSSLSASVGDRVTITCRASQGIGSSLAWYQQKPGKAPKLLIYDASNRATGIPSRFSGSGSGTDFTLTISSLQPEDFATYYCQQYDQWPPWTFGQGTKVEIKR
notes: Fab hit from E. coli
As to B1, the binding result in assay [1] is on record as “binds”.

B2: B15740 (Fab, V domains shown)
VH: EVQLVESGGGLVQPGGSLRLSCAASGFTFSDYWIHWVRQAPGKGLEWIGWISPSGGGTKYAQKFQGRVTISRDNSKNTLYLQLNSLRAEDTAVYYCARGAYEFDYWGQGTLVTVSS
VL: DIQLTQSPSSLSASVGDRVTITCRASQSVSSRFLAWYQQKPGKAPKLLIYDASNRATGIPSRFSGSGSGTDFTLTISSLQPEDFATYYCQQSYPTPLTFGQGTKVEIKR
notes: Fab hit from E. coli
In the case of B2, in assay [1], the binding result was “binds”.

B3: TY22566 (antibody, IgG1, V domains shown)
VH: EVQLVESGGGLVQPGGSLRLSCAASGYSISSGYHWSWIRQAPGKGLEWLARIDWDDDKYYSTSLKSRLTISRDNSKNTLYLQLNSLRAEDTAVYYCARSYVYFDYWGQGTLVTVSS
VL: EVGSYPNPASDCVPYYYACAYSGRSAGGGGSPLGLAGSGGSDIQLTQSPSSLSASVGDRVTITCRASQSVRGRFLAWYQQKPGKAPKLLIYDASNRATGIPSRFSGSGSGTDFTLTISSLQPEDFATYYCQQSSSWPPTFGQGTKVEIKR
A word on the EC50: it is the concentration at which the effect is half-maximal. Consider B3, for which, in assay [2], the EC50 stood at 163 nM and the LogEC50 is -6.79 log M.

B4: TY22563 (antibody, IgG1, V domains shown)
VH: B3 VH
VL: EVGSYYSAYPACDSHYPYCQSSGRSAGGGGSPLGLAGSGGSDIQLTQSPSSLSASVGDRVTITCRASQSVRGRFLAWYQQKPGKAPKLLIYDASNRATGIPSRFSGSGSGTDFTLTISSLQPEDFATYYCQQSSSWPPTFGQGTKVEIKR
With B4, in assay [2], the half-maximal effective concentration (EC50) was 47.7 nM and the LogEC50 was -7.32 log M.

B5: TY22564 (antibody, IgG1, V domains shown)
VH: B3 VH
VL: B4 VL with Q20N, S22A
On to B5, for which, in assay [2], the EC50 came to 39 nM and the LogEC50 was -7.41 log M.

B6: TY22401 (antibody, V domains shown)
VH: B3 VH
VL: EVGSYNFVADSCPDHPYPCSASGRSAGGGGSPLGLAGSGGSDIQLTQSPSSLSASVGDRVTITCRASQSVRGRFLAWYQQKPGKAPKLLIYDASNRATGIPSRFSGSGSGTDFTLTISSLQPEDFATYYCQQSSSWPPTFGQGTKVEIKR
notes: peptide fused to the N-terminus of the light chain; also called masking peptide B13189
Turning to B6, in assay [3], the EC50 worked out at 23.8 nM and the LogEC50 is -7.62 log M. Moreover, in assay [2], the EC50 came to 15.9 nM and the LogEC50 was -7.8 log M.

B7: TY22565 (antibody, IgG1, V domains shown)
VH: B3 VH
VL: B3 VL with N7Q, A9S
As for B7, in assay [2], the EC50 was determined as 210 nM and the LogEC50 was -6.68 log M.

B8: TY22402 (antibody, IgG1, V domains shown)
VH: B3 VH
VL: B4 VL with Y6I, S7V, A8H, Y9H, P10S, A11D, S14A, H15F, Q20D
notes: also called masking peptide B13180
Take B8: in assay [3], the EC50 is 478 nM and the LogEC50 was -6.32 log M. Also, in assay [2], the EC50 stood at 125 nM and the LogEC50 was -6.9 log M.

B9: TY22402 (peptide as listed in Table 26) (antibody, V domains shown)
VH: B3 VH
VL: B4 VL with Y6I, S7V, A8H, Y9H, P10S, A11D, S14A, H15F, Q20D, S31T
notes: kept apart from m66
On to B9, for which the results for the EC50 in assay [4] and in assay [5] were 54 nM and 116 nM, respectively.

B10: TY21687 (antibody, V domains shown)
VH: EVQLVESGGGLVQPGGSLRLSCAASGFTFSGYAIHWVRQAPGKGLEWIGIISPSGGGTKYAQKFQGRVTISRDNSKNTLYLQLNSLRAEDTAVYYCARHPFAYWGQGTLVTVSS
VL: DIQLTQSPSSLSASVGDRVTITCRASQSVDFYGISFLDWYQQKPGKAPKLLIYDASNRATGIPSRFSGSGSGTDFTLTISSLQPEDFATYYCQQYVSSPPEYTFGQGTKVEIK
With B10, the “IC50 (read off the curve)” value in assay [6] was approximately 40 nM. The LogEC50 was -9.13 log M in assay [7] and -9.49 log M in assay [8].

B11: TY21585 (antibody, V domains shown)
VH: EVQLVESGGGLVQPGGSLRLSCAASGFTFSDYAIHWVRQAPGKGLEWIGIISPSSGSTNYAQKFQGRVTISRDNSKNTLYLQLNSLRAEDTAVYYCARDIHSGSSGYYYGFDVWGQGTLVTVSS
VL: B10 VL with Q27E, Y32F, D38A, Q94H, V96T, E101V
For the molecule B11, the “IC50 (read off the curve)” value in assay [6] was approximately 20 nM. The LogEC50 is -8.22 log M in assay [7] and -9.26 log M in assay [8].

B12: TY21591 (antibody, V domains shown)
VH: EVQLVESGGGLVQPGGSLRLSCAASGFSLSTGGVAVSWIRQAPGKGLEWIGEIYHSGSTYYSPSLKSRVTISRDNSKNTLYLQLNSLRAEDTAVYYCARRIATATYFDYWGQGTLVTVSS
VL: DIQLTQSPSSLSASVGDRVTITCRASQTVFSRYLAWYQQKPGKAPKLLIYDASNRATGIPSRFSGSGSGTDFTLTISSLQPEDFATYYCQQSYYWPPWTFGQGTKVEIK
As to B12, the LogEC50 is -9.15 log M in assay [7] and -9.08 log M in assay [8].
